Test results from publication PMC6405930, “Conservation of the Amyloid Interactome Across Diverse Fibrillar Structures” (Scientific Reports, 2019).

Columns and labels:
Ab1 fibrils [1] = tested on: T1, Ab1 fibrils; assay: Fibril incubation with plasma, quantitative MS/MS of bound proteins; assay type: binding, human; conditions: 50:1 w/w plasma protein:fibril
T1 construct: Synthetic amyloid β peptide 1–40 was purchased from Caslo Aps (Lyngby, Denmark); purchased Caslo Aps (Lyngby, Denmark); host or cells: synthetic peptide
Method: (§1) Plasma and CSF solutions were centrifuged (40,000 g, 20 min) to remove any aggregates. The protein concentration was determined using 280 nm absorbance assuming 1 Abs = 1 mg/mL. Samples with fibril material (20 μg), plasma (500 μg) or CSF (40 μg) proteins were prepared in 200 μL PBS buffer with 5 mM EDTA. Control samples (without fibril material) were prepared similarly. All samples were incubated at room temperature for one hour under gentle agitation. Fibrils and fibril-bound proteins were pelleted by centrifugation at 17,000 g for 30 minutes. The supernatant (175 μL) was removed and the aggregate was re-suspended in 175 μL PBS and pelleted again before further preparation for gel analysis and spin-filter assisted digest for quantitative MS/MS.
(§2) The fibril-protein pellets were transferred to spin-filters (0.22 μm), washed twice in PBS (100 μL) and once in 1 M NaCl (100 μL). The fibrils and fibril-bound proteins were dissolved by one-hour incubation in 100 μL 6 M guanidinium chloride followed by elution from the spin-filter. The eluted proteins were loaded onto a 3 kDa MWCO filter unit for filter-assisted unfolding, reduction, alkylation, and trypsin digestion. In brief, samples were washed twice in 8 M urea, once in 8 M urea with 50 mM DTT, once in 8 M urea with 50 mM iodoaceteamide, and twice in 8 M Urea. The filter units were dried by centrifugation (14,000 g in 30 minutes) after every addition. Trypsin digestion was carried out with 0.25 μg sequencing grade trypsin from Sigma Aldrich in 50 mM ammonium bicarbonate overnight at 37 °C. The tryptic peptides were collected by centrifugation, acidified with TFA (0.1%) and micro-purified using POROS R2 column material (Applied Biosystems) packed in P200 pipette tips (Sarstedt).
(§3) LC-MS/MS analyses were performed on an EASY-nLC II system (Thermo Fisher Scientific) connected to a TripleTOF 5600+ mass spectrometer (Sciex) equipped with a NanoSpray III source (Sciex) and operated under Analyst TF 1.6.0 control.
(§4) The micro-purified tryptic peptides were dissolved in 0.1% formic acid, injected and trapped on an in-house packed trap column (2 cm × 100 μm I.D) with RP ReproSil-Pur C18-AQ 3 μm resin (Dr. Maisch GmbH). Peptides were eluted from the trap column and separated on a 15 cm analytical column (75 μm i.d.) packed in-house in a pulled emitter with RP ReproSil-Pur C18-AQ 3 μm resin (Dr. Maisch GmbH). Elution from the analytical column was performed with a linear gradient from 5% to 35% phase B (90% acetonitrile with 0.1% formic acid) over 20 min for protein identification and 50 min for quantitative analysis, respectively.
(§5) All samples were analysed three times, yielding nine MS/MS experiments for each fibril for both plasma and CSF. For the area-based extracted ion chromatogram (XIC) quantification, the acquisition method was set up as an information-dependent acquisition (IDA) experiment collecting up to 25 MS/MS spectra in each 1.6 sec cycle using an exclusion window of 6 sec.
(§6) XIC quantification was based on the average ion intensity of the three most abundant peptides for each protein. Only proteins quantified in at least four out of nine MS/MS experiments per fibril were included in the quantification. The total ion scores were visualized after grouping the proteins according to function (Figure S11).
(§7) For each MS/MS experiment, the ion intensities of the individual proteins were normalized to the total ion intensity of that MS/MS experiment to achieve a relative protein composition. The contribution of each protein was averaged over all nine MS/MS experiments (Tables 1 and 2).

Ab2 fibrils [2] = tested on: T2, Ab2 fibrils; assay: as above; assay type: binding, human; conditions: 50:1 w/w plasma protein:fibril
T2 construct: Two structurally distinct fibrils of the Aβ(1–40) peptide associated with AD
Method: as §1, with “Samples with fibril material (20 μg), plasma (500 μg) or CSF (40 μg) proteins were prepared in 200 μL PBS buffer with 5 mM EDTA.” left out
as §2, §3, §4, §5, §6, §7

glucagon fibrils [3] = target: T3, glucagon fibrils (Homo sapiens, UniProt P01275); assay: as above; assay type: binding; conditions: 50:1 w/w plasma protein:fibril
T3 construct: fibrils of the peptide hormone glucagon
Method: as §1, with “Samples with fibril material (20 μg), plasma (500 μg) or CSF (40 μg) proteins were prepared in 200 μL PBS buffer with 5 mM EDTA.” left out
as §2, §3, §4, §5, §6, §7

C-36 fibrils [4] = target: T4, C-36 fibrils (Homo sapiens, UniProt P01009); assay: as above; assay type: binding; conditions: 50:1 w/w plasma protein:fibril
T4 construct: the 36 residue C-terminal fragment of α1-antitrypsin (C-36)
Method: as §1, with “Samples with fibril material (20 μg), plasma (500 μg) or CSF (40 μg) proteins were prepared in 200 μL PBS buffer with 5 mM EDTA.” left out
as §2, §3, §4, §5, §6, §7

αSN fibrils = αSN fibrils (Homo sapiens, UniProt P37840); assay: as above; assay type: binding; conditions: 50:1 w/w plasma protein:fibril
Method: as §1, with “Samples with fibril material (20 μg), plasma (500 μg) or CSF (40 μg) proteins were prepared in 200 μL PBS buffer with 5 mM EDTA.” left out
as §2, §3, §4, §5, §6, §7

FAS4-AD aggregates [5] = tested on: T5, FAS4-AD aggregates; assay: as above; assay type: binding, human; set-up: key to Identification status of plasma protein bound: FAS4-AD: *: Identified, but not quantified; —: Not identified in any of the samples; conditions: for Relative composition of plasma proteins bound: FAS4-AD: 50:1 w/w plasma protein:fibril
T5 construct: aggregates of a mutated version of the FAS1-4 domain of TGFBIp
Method: as §1, with “Samples with fibril material (20 μg), plasma (500 μg) or CSF (40 μg) proteins were prepared in 200 μL PBS buffer with 5 mM EDTA.” left out
as §2, §3, §4, §5, §6, §7

Ab1 fibrils [6] = tested on: T1, Ab1 fibrils; assay: Fibril incubation with CSF, quantitative MS/MS of bound proteins; assay type: binding, human; conditions: 4:1 w/w CSF protein:fibril
Method: as §1, with “Samples with fibril material (20 μg), plasma (500 μg) or CSF (40 μg) proteins were prepared in 200 μL PBS buffer with 5 mM EDTA.” left out
as §2, §3, §4, §5, §6, §7

Ab2 fibrils [7] = tested on: T2, Ab2 fibrils; assay: as above; assay type: binding, human; conditions: 4:1 w/w CSF protein:fibril
Method: as §1, with “Samples with fibril material (20 μg), plasma (500 μg) or CSF (40 μg) proteins were prepared in 200 μL PBS buffer with 5 mM EDTA.” left out
as §2, §3, §4, §5, §6, §7

glucagon fibrils [8] = target: T3, glucagon fibrils; assay: as above; assay type: binding; conditions: 4:1 w/w CSF protein:fibril
Method: as §1, with “Samples with fibril material (20 μg), plasma (500 μg) or CSF (40 μg) proteins were prepared in 200 μL PBS buffer with 5 mM EDTA.” left out
as §2, §3, §4, §5, §6, §7

C-36 fibrils [9] = target: T4, C-36 fibrils; assay: as above; assay type: binding; conditions: 4:1 w/w CSF protein:fibril
Method: as §1, with “Samples with fibril material (20 μg), plasma (500 μg) or CSF (40 μg) proteins were prepared in 200 μL PBS buffer with 5 mM EDTA.” left out
as §2, §3, §4, §5, §6, §7

FAS4-AD aggregates [10] = tested on: T5, FAS4-AD aggregates; assay: as above; assay type: binding, human; set-up: key to Identification status of CSF protein bound: FAS4-AD: *: Identified, but not quantified; —: Not identified in any of the samples; conditions: symbol cells
Method: as §1, with “Samples with fibril material (20 μg), plasma (500 μg) or CSF (40 μg) proteins were prepared in 200 μL PBS buffer with 5 mM EDTA.” left out
as §2, §3, §4, §5, §6, §7

T3 sequence (P01275 53-81 limits assumed): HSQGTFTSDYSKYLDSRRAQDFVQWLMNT
T4 sequence (P01009 383-418 limits assumed): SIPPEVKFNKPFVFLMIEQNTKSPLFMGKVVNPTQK

| Molecule | Relative composition of plasma proteins bound: Ab1 (Ab1 fibrils [1]) | Relative composition of plasma proteins bound: Ab2 (Ab2 fibrils [2]) | Relative composition of plasma proteins bound: Glucagon (glucagon fibrils [3]) | Relative composition of plasma proteins bound: C-36 (C-36 fibrils [4]) | Relative composition of plasma proteins bound: αSN (αSN fibrils) | Relative composition of plasma proteins bound: FAS4-AD (FAS4-AD aggregates [5]) | Identification status of plasma protein bound: FAS4-AD (FAS4-AD aggregates [5]; symbol cells) | Relative composition of CSF proteins bound: Ab1 (Ab1 fibrils [6]) | Relative composition of CSF proteins bound: Ab2 (Ab2 fibrils [7]) | Relative composition of CSF proteins bound: Glucagon (glucagon fibrils [8]) | Relative composition of CSF proteins bound: C-36 (C-36 fibrils [9]) | Identification status of CSF protein bound: FAS4-AD (FAS4-AD aggregates [10]) |
| --- | --- | --- | --- | --- | --- | --- | --- | --- | --- | --- | --- | --- |
| C4b-binding protein α chain: plasma protein bound to fibrils (protein, UniProt P04003 49-597, looked up) C4b-binding protein alpha …: NCGPPPTLSFAAPMDITLTETRFKTGTTLKYTCLPGYVRSHSTQTLTCNSDGEWVYNTFCIYKRCRHPGELRNGQVEIKTDLSFGSQIEFSCSEGFFLIGSTTSRCEVQDRGVGWSHPLPQCEIVKCKPPPDIRNGRHSGEENFYAYGFSVTYSCDPRFSLLGHASISCTVENETIGVWRPSPPTCEKITCRKPDVSHGEMVSGFGPIYNYKDTIVFKCQKGFVLRGSSVIHCDADSKWNPSPPACEPNSCINLPDIPHASWETYPRPTKEDVYVVGTVLRYRCHPGYKPTTDEPTTVICQKNLRWTPYQGCEALCCPEPKLNNGEITQHRKSRPANHCVYFYGDEISFSCHETSRFSAICQGDGTWSPRTPSCGDICNFPPKIAHGHYKQSSSYSFFKEEIIYECDKGYILVGQAKLSCSYSHWSAPAPQCKALCRKPELVNGRLSVDKDQYVEPENVTIQCDSGYGVVGPQSITCSGNRTWYPEVPKCEWETPEGCEQVLTGKRLMQCLPNPEDVKMALEVYKLSLEIEQLELQRDSARQSTLDKEL | 6.1 ± 0.2 % of total protein | 9.9 ± 0.5 % of total protein | 3.0 ± 0.1 % of total protein | 5.5 ± 0.3 % of total protein | 7.4 ± 2.5 % of total protein | 2.7 ± 0.9 % of total protein |  |  |  |  |  |  |
| Ig μ chain C region: plasma protein bound to fibrils (protein, UniProt P01871 1-474, looked up) Immunoglobulin heavy constant …: GSASAPTLFPLVSCENSPSDTSSVAVGCLAQDFLPDSITFSWKYKNNSDISSTRGFPSVLRGGKYAATSQVLLPSKDVMQGTDEHVVCKVQHPNGNKEKNVPLPVIAELPPKVSVFVPPRDGFFGNPRKSKLICQATGFSPRQIQVSWLREGKQVGSGVTTDQVQAEAKESGPTTYKVTSTLTIKESDWLGQSMFTCRVDHRGLTFQQNASSMCVPDQDTAIRVFAIPPSFASIFLTKSTKLTCLVTDLTTYDSVTISWTRQNGEAVKTHTNISESHPNATFSAVGEASICEDDWNSGERFTCTVTHTDLPSPLKQTISRPKGVALHRPDVYLLPPAREQLNLRESATITCLVTGFSPADVFVQWMQRGQPLSPEKYVTSAPMPEPQAPGRYFAHSILTVSEEEWNTGETYTCVVAHEALPNRVTERTVDKSTEGEVSADEEGFENLWATASTFIVLFLLSLFYSTTVTLFKVK | 0.6 ± 0.0 % of total protein | 0.7 ± 0.2 % of total protein | 0.8 ± 0.1 % of total protein | 0.4 ± 0.1 % of total protein | 0.5 ± 0.2 % of total protein | 2.6 ± 1.5 % of total protein |  |  |  |  |  |  |
| C4b-binding protein β chain: plasma protein bound to fibrils (protein, UniProt P20851 18-252, looked up) C4b-binding protein beta chain: SDAEHCPELPPVDNSIFVAKEVEGQILGTYVCIKGYHLVGKKTLFCNASKEWDNTTTECRLGHCPDPVLVNGEFSSSGPVNVSDKITFMCNDHYILKGSNRSQCLEDHTWAPPFPICKSRDCDPPGNPVHGYFEGNNFTLGSTISYYCEDRYYLVGVQEQQCVDGEWSSALPVCKLIQEAPKPECEKALLAFQESKNLCEAMENFMQQLKESGMTMEELKYSLELKKAELKAKLL | 0.9 ± 0.1 % of total protein | 1.3 ± 0.3 % of total protein | 0.5 ± 0.1 % of total protein | 0.7 ± 0.1 % of total protein | 1.3 ± 0.4 % of total protein |  | * |  |  |  |  |  |
| Ig γ -2 chain C region: plasma/CSF protein bound to fibrils (protein, UniProt P01859 1-395, looked up) Immunoglobulin heavy constant …: ASTKGPSVFPLAPCSRSTSESTAALGCLVKDYFPEPVTVSWNSGALTSGVHTFPAVLQSSGLYSLSSVVTVPSSNFGTQTYTCNVDHKPSNTKVDKTVERKCCVECPPCPAPPVAGPSVFLFPPKPKDTLMISRTPEVTCVVVDVSHEDPEVQFNWYVDGVEVHNAKTKPREEQFNSTFRVVSVLTVVHQDWLNGKEYKCKVSNKGLPAPIEKTISKTKGQPREPQVYTLPPSREEMTKNQVSLTCLVKGFYPSDISVEWESNGQPENNYKTTPPMLDSDGSFFLYSKLTVDKSRWQQGNVFSCSVMHEALHNHYTQKSLSLSPELQLEESCAEAQDGELDGLWTTITIFITLFLLSVCYSATITFFKVKWIFSSVVDLKQTIVPDYRNMIRQGA | 0.9 ± 0.1 % of total protein | 0.9 ± 0.1 % of total protein | 0.9 ± 0.1 % of total protein | 1.2 ± 0.2 % of total protein | 1.2 ± 0.8 % of total protein |  |  | 1.7 ± 0.2 % of total protein | 2.0 ± 0.3 % of total protein | 1.1 ± 0.3 % of total protein | 1.0 ± 0.3 % of total protein | * |
